Test results from patent US20230399409A1.

Tests used:
[1] = target: monkey IL-36R (monkey); assay: flow cytometry on CHO-K1 cells expressing monkey IL-36R; fit value in the second table under the plot for a flat curve (row ECF corresponds to EC90 of Table 8; no unit in the table, axis in µg/mL)
[2] = target: human IL-36R (human) (UniProt Q9HB29); assay: flow cytometry on CHO-K1 cells expressing human IL-36R; fit value in the second table under the plot for a flat curve (row ECF corresponds to EC90 of Table 8; no unit in the table, axis in µg/mL)
Chain of human IL-36R (human) (Q9HB29 20-575): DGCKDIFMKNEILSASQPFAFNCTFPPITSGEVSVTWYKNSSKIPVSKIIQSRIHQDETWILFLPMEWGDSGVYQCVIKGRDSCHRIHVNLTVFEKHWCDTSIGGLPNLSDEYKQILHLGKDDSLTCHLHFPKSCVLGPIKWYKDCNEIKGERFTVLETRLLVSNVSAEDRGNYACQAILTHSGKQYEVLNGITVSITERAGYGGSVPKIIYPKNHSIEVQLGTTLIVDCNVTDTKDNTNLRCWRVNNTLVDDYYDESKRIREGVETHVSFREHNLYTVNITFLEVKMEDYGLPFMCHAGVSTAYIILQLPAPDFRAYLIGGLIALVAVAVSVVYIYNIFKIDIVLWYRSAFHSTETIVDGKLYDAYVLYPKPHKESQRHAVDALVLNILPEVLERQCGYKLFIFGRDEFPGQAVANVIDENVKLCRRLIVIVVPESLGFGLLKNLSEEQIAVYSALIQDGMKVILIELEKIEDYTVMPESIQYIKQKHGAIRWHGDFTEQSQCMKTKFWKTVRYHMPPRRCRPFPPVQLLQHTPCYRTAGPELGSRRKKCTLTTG

TNP IgG1 (Fc silence) negative control antibody 900543
ECF [1]: 0.000457 µg/mL
ECF [2]: 0.000494 µg/mL
